The source of these data is article PMC3919604, “Single-molecule characterization of Fen1 and Fen1/PCNA complexes acting on flap substrates” (Nucleic Acids Research, 2013).

As a reminder, the Kd is a measure of binding affinity in units of concentration.

Data set [1] relates to Fen1 (flap endonuclease 1);PCNA-Cy5 heterotrimer (Sulfolobus solfataricus;Sulfolobus solfataricus). Kind of data set: intermolecular FRET. Conditions: PCNA-Cy5 titrated with 5 uM Fen1; substrate of the Kd fit not explicitly stated; 10 mM Ca2+ (prevents cleavage), 20 C / room temperature; binding buffer, salt and pH not in held text (hybridization buffer 20 mM Tris-HCl pH 7.8, 25 mM NaCl).

For data set [2], the system named is Fen1 (flap endonuclease 1);PCNA12 heterodimer (PCNA1/PCNA2) (Sulfolobus solfataricus;Sulfolobus solfataricus). Kind of data set: PIFE (Cy3). Conditions: PCNA12 titrated with 5 uM Fen1, 10 mM Ca2+; 10 mM Ca2+ (prevents cleavage), 20 C / room temperature; binding buffer, salt and pH not in held text (hybridization buffer 20 mM Tris-HCl pH 7.8, 25 mM NaCl).
The test system of data set [3] is Fen1 (flap endonuclease 1);PCNA heterotrimer (PCNA1/PCNA2/PCNA3) (Sulfolobus solfataricus;Sulfolobus solfataricus). The experiment in a line: PIFE (Cy3). Conditions: PCNA titrated with 5 uM Fen1, 10 mM Ca2+; 10 mM Ca2+ (prevents cleavage), 20 C / room temperature; binding buffer, salt and pH not in held text (hybridization buffer 20 mM Tris-HCl pH 7.8, 25 mM NaCl).

In data set [4] the test system is Fen1 (flap endonuclease 1) (Sulfolobus solfataricus). The experiment in a line: FRET titration. Conditions: 10 mM Ca2+, no PCNA; 10 mM Ca2+ (prevents cleavage), 20 C / room temperature; binding buffer, salt and pH not in held text (hybridization buffer 20 mM Tris-HCl pH 7.8, 25 mM NaCl).
The subject of data set [5] is Fen1 (flap endonuclease 1);PCNA heterotrimer (PCNA1/PCNA2/PCNA3) (Sulfolobus solfataricus;Sulfolobus solfataricus). The experiment in a line: FRET titration. Conditions: Fen1 titrated with 2 uM PCNA, 10 mM Ca2+; 10 mM Ca2+ (prevents cleavage), 20 C / room temperature; binding buffer, salt and pH not in held text (hybridization buffer 20 mM Tris-HCl pH 7.8, 25 mM NaCl).

For data set [6], the system named is Fen1 (flap endonuclease 1) (Sulfolobus solfataricus). Kind of data set: smFRET. Conditions: 10 mM Ca2+, no PCNA; 10 mM Ca2+ (prevents cleavage), 20 C / room temperature; binding buffer, salt and pH not in held text (hybridization buffer 20 mM Tris-HCl pH 7.8, 25 mM NaCl).
Data set [7] deals with Fen1 (flap endonuclease 1);PCNA heterotrimer (PCNA1/PCNA2/PCNA3) (Sulfolobus solfataricus;Sulfolobus solfataricus). The experiment in a line: smFRET. Conditions: Fen1 titrated with 2 uM PCNA, 10 mM Ca2+; 10 mM Ca2+ (prevents cleavage), 20 C / room temperature; binding buffer, salt and pH not in held text (hybridization buffer 20 mM Tris-HCl pH 7.8, 25 mM NaCl).
Data set [8] concerns Fen1 (flap endonuclease 1) (Sulfolobus solfataricus). The experiment in a line: ensemble FRET. Conditions: 10 mM Ca2+, no PCNA, 20 C; 10 mM Ca2+ (prevents cleavage), 20 C / room temperature; binding buffer, salt and pH not in held text (hybridization buffer 20 mM Tris-HCl pH 7.8, 25 mM NaCl).
For data set [9], the system named is Fen1 (flap endonuclease 1);PCNA heterotrimer (PCNA1/PCNA2/PCNA3) (Sulfolobus solfataricus;Sulfolobus solfataricus). Kind of data set: ensemble FRET. Conditions: Fen1 titrated with 2 uM PCNA, 10 mM Ca2+, 20 C; 10 mM Ca2+ (prevents cleavage), 20 C / room temperature; binding buffer, salt and pH not in held text (hybridization buffer 20 mM Tris-HCl pH 7.8, 25 mM NaCl).

Data set [10] addresses Fen1 (Saccharolobus solfataricus) (UniProt Q980U8). Conditions: cited from earlier work.
For data set [11], the target named is T1, Sulfolobus solfataricus PCNA heterotrimer (PCNA1, PCNA2, PCNA3) (Sulfolobus solfataricus, UniProt P57766 1-249; Q97Z84 1-245; P57765 1-244).
T1 construct: PCNA1 subunit of the heterotrimeric PCNA, Sulfolobus solfataricus; PCNA2 subunit of the heterotrimeric PCNA, Sulfolobus solfataricus; PCNA3 subunit of the heterotrimeric PCNA, Sulfolobus solfataricus; also called heterotrimeric PCNA; sliding clamp; copies: + +
T1 sequence (looked up) 1: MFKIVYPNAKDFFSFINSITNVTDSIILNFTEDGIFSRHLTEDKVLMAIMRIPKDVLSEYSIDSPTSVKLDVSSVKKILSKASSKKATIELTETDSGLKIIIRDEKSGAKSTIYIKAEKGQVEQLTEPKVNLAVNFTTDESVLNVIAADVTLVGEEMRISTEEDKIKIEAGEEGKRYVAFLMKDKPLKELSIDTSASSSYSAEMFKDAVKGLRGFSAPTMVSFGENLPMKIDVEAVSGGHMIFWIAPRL
T1 sequence (looked up) 2: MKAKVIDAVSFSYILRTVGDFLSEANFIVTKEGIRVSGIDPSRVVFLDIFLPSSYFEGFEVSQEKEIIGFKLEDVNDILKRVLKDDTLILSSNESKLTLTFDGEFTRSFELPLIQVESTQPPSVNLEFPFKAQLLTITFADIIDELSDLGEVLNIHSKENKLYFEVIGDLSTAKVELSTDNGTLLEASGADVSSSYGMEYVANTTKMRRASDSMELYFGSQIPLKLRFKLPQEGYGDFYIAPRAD
T1 sequence (looked up) 3: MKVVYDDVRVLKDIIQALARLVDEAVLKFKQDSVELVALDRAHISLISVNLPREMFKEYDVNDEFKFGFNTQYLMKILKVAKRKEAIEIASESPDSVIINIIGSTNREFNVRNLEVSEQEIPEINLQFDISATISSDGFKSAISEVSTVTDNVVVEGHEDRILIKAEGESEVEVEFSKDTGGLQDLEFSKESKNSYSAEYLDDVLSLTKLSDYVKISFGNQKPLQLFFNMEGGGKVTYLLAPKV
Kind of data set: other fluorescence titration; protein-induced fluorescence enhancement (PIFE) of Cy3 on the 3F-duplex of a double-flap DNA; PCNA or PCNA12 titrated into DNA pre-incubated with 5 uM Fen1, 10 mM Ca2+; 30 mM HEPES pH 7.6, 40 mM KCl, 5% glycerol, 0.1 mg/ml BSA, 20 C. Conditions: both partners purified.

The target in data set [12] is T2, Sulfolobus solfataricus PCNA1-PCNA2 heterodimer (PCNA12) (Sulfolobus solfataricus, UniProt P57766 1-249; Q97Z84 1-245).
T2 construct: PCNA1 subunit, Sulfolobus solfataricus; PCNA2 subunit, Sulfolobus solfataricus; also called PCNA12 complex
T2 sequence (looked up) 1: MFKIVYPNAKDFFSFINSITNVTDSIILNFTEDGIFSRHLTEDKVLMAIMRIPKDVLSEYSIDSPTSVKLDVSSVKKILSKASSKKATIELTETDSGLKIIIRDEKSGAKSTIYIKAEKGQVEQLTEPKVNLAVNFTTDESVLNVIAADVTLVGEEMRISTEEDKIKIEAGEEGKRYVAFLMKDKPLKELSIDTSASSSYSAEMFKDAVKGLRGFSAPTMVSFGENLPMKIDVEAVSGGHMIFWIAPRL
T2 sequence (looked up) 2: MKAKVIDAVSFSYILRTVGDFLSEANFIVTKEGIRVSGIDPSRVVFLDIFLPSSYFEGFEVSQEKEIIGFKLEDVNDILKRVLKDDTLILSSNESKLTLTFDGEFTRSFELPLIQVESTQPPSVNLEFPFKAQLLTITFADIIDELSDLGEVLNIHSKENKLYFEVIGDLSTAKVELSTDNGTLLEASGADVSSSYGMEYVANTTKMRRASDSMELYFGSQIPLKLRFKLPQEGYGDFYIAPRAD
Described as above. Conditions: both partners purified.

Data set [13] deals with T3, Cy5 acceptor-labelled Sulfolobus solfataricus PCNA heterotrimer (PCNA1 N131C-Cy5, PCNA2, PCNA3) (Sulfolobus solfataricus, UniProt P57766 1-249; Q97Z84 1-245; P57765 1-244, N131C, Cy5-maleimide on the single cysteine of N131C).
T3 construct: PCNA1 subunit, Sulfolobus solfataricus, with the point mutation N131C; PCNA2 subunit, Sulfolobus solfataricus, unlabelled; PCNA3 subunit, Sulfolobus solfataricus, unlabelled; Labelling yield about 80%; also called PCNA-Cy5; acceptor-labelled PCNA; copies: + +
T3 sequence (looked up) 1: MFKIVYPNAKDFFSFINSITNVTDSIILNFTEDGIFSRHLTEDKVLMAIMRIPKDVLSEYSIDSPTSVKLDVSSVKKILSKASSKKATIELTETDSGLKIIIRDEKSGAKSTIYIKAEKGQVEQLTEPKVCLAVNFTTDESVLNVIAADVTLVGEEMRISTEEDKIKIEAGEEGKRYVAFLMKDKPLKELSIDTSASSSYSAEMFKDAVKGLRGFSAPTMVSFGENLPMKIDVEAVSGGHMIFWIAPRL
T3 sequence (looked up) 2: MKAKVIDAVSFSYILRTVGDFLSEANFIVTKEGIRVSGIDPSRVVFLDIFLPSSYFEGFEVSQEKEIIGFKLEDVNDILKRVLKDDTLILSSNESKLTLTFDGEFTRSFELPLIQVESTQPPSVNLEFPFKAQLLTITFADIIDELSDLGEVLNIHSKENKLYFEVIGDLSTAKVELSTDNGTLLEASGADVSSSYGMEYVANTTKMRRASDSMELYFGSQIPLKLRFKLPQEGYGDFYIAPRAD
T3 sequence (looked up) 3: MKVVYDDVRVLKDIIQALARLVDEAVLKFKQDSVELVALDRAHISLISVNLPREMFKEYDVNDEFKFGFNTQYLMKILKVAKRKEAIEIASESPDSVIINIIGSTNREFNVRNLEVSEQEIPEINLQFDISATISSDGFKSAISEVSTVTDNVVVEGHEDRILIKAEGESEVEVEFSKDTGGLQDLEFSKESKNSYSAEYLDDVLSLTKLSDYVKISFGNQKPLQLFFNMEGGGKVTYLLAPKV
Kind of data set: FRET or BRET; ensemble inter-molecular FRET between Cy3-labelled double-flap DNA and Cy5-labelled PCNA; PCNA-Cy5 titrated, DNA pre-equilibrated with 5 uM Fen1. Conditions: both partners purified. On the technique in general: Bioluminescence resonance energy transfer reports proximity on the nanometre scale.

Regarding Double flap, Cy3 in 3F-duplex, the Kd is 117 nM in data set [1], 360 nM in data set [2] and 160 nM in data set [3].

“5'-flap substrate lacking the 3' extrahelical nucleotide”: the values for the equilibrium dissociation constant (Kd) in data set [4] and in data set [5] were above 10000 nM and 700 nM, respectively.

Consider “Flap-23 double flap, single-molecule, Cy3/Cy5, biotin”, for which the Kd amounted to 23 nM in data set [6] and 1.6 nM in data set [7].

For “Flap-12/23/13 double flap (global fit of three labelled versions)”, the equilibrium dissociation constant (Kd) in data set [8] was 14 nM; in [9], 3 nM.

Turning to PCNA (from UniProt P57766), the equilibrium dissociation constant (Kd) in [10] is 210 nM.

B1: Sulfolobus solfataricus Flap endonuclease 1 (Fen1) (enzyme, UniProt Q980U8 1-349, looked up)
chain: MDLADLVKDVKRELSFSELKGKRVSIDGYNALYQFLAAIRQPDGTPLMDSQGRVTSHLSGLFYRTINILEEGVIPIYVFDGKPPEQKSEELERRRKAKEEAERKLERAKSEGKIEELRKYSQAILRLSNIMVEESKKLLRAMGIPIVQAPSEGEAEAAYLNKLGLSWAAASQDYDAILFGAKRLVRNLTITGKRKLPNKDVYVEIKPELIETEILLKKLGITREQLIDIGILIGTDYNPDGIRGIGPERALKIIKKYGKIEKAMEYGEISKKDINFNIDEIRGLFLNPQVVKPEEALDLNEPNGEDIINILVYEHNFSEERVKNGIERLTKAIKEAKGASRQTGLDRWF
notes: Flap endonuclease 1 (Fen1), Sulfolobus solfataricus
Turning to B1, the Kd in data set [11] was found to be 160 ± 14 nM; in [12], 360 ± 30 nM; in [13], 117 ± 34 nM.
